Data taken from US20080020978A1 (Amgen, published 2008).
Bridge positions count the residues as written; N and C are the ends. Square brackets hold non-standard residues; d marks the D form. Ends that are not written are not given here. 1Nal = N[C@@H](Cc1cccc2ccccc12)C(=O)O; hArg = N=C(N)NCCCC[C@H](N)C(=O)O; Cit = NC(=O)NCCC[C@H](N)C(=O)O; Aze = O=C(O)[C@@H]1CCN1; Aib = CC(C)(N)C(=O)O; Ahx = NCCCCCC(=O)O

B1: SEQ ID NO 903 (peptide)
peptide: Ac-WVTHRLEGLLKQSGGVV[hArg]KNFVPTDVGPFAF-NH2
SMILES: CC(=O)N[C@@H](Cc1c[nH]c2ccccc12)C(=O)N[C@H](C(=O)N[C@H](C(=O)N[C@@H](Cc1c[nH]cn1)C(=O)N[C@@H](CCCNC(=N)N)C(=O)N[C@@H](CC(C)C)C(=O)N[C@@H](CCC(=O)O)C(=O)NCC(=O)N[C@@H](CC(C)C)C(=O)N[C@@H](CC(C)C)C(=O)N[C@@H](CCCCN)C(=O)N[C@@H](CCC(N)=O)C(=O)N[C@@H](CO)C(=O)NCC(=O)NCC(=O)N[C@H](C(=O)N[C@H](C(=O)N[C@@H](CCCCNC(=N)N)C(=O)N[C@@H](CCCCN)C(=O)N[C@@H](CC(N)=O)C(=O)N[C@@H](Cc1ccccc1)C(=O)N[C@H](C(=O)N1CCC[C@H]1C(=O)N[C@H](C(=O)N[C@@H](CC(=O)O)C(=O)N[C@H](C(=O)NCC(=O)N1CCC[C@H]1C(=O)N[C@@H](Cc1ccccc1)C(=O)N[C@@H](C)C(=O)N[C@@H](Cc1ccccc1)C(N)=O)C(C)C)[C@@H](C)O)C(C)C)C(C)C)C(C)C)[C@@H](C)O)C(C)C
B2: SEQ ID NO 908 (peptide)
peptide: Ac-WVEH[hArg]LKGLLS[Cit]SGGVV[hArg]KNFVPTDVGPFAF-NH2
modifications: lactam 3-7
SMILES: CC(=O)N[C@@H](Cc1c[nH]c2ccccc12)C(=O)N[C@H](C(=O)N[C@H]1CCC(=O)NCCCC[C@@H](C(=O)NCC(=O)N[C@@H](CC(C)C)C(=O)N[C@@H](CC(C)C)C(=O)N[C@@H](CO)C(=O)N[C@@H](CCCNC(N)=O)C(=O)N[C@@H](CO)C(=O)NCC(=O)NCC(=O)N[C@H](C(=O)N[C@H](C(=O)N[C@@H](CCCCNC(=N)N)C(=O)N[C@@H](CCCCN)C(=O)N[C@@H](CC(N)=O)C(=O)N[C@@H](Cc2ccccc2)C(=O)N[C@H](C(=O)N2CCC[C@H]2C(=O)N[C@H](C(=O)N[C@@H](CC(=O)O)C(=O)N[C@H](C(=O)NCC(=O)N2CCC[C@H]2C(=O)N[C@@H](Cc2ccccc2)C(=O)N[C@@H](C)C(=O)N[C@@H](Cc2ccccc2)C(N)=O)C(C)C)[C@@H](C)O)C(C)C)C(C)C)C(C)C)NC(=O)[C@H](CC(C)C)NC(=O)[C@H](CCCCNC(=N)N)NC(=O)[C@H](Cc2c[nH]cn2)NC1=O)C(C)C
B3: SEQ ID NO 916 (peptide)
peptide: C[Ahx]WVTHRLAGLLSRSGGVVRKNFVPTDVGPFAF-NH2
modifications: N-terminus assumed
SMILES: CC(C)C[C@H](NC(=O)CNC(=O)[C@H](C)NC(=O)[C@H](CC(C)C)NC(=O)[C@H](CCCNC(=N)N)NC(=O)[C@H](Cc1c[nH]cn1)NC(=O)[C@@H](NC(=O)[C@@H](NC(=O)[C@H](Cc1c[nH]c2ccccc12)NC(=O)CCCCCNC(=O)[C@@H](N)CS)C(C)C)[C@@H](C)O)C(=O)N[C@@H](CC(C)C)C(=O)N[C@@H](CO)C(=O)N[C@@H](CCCNC(=N)N)C(=O)N[C@@H](CO)C(=O)NCC(=O)NCC(=O)N[C@H](C(=O)N[C@H](C(=O)N[C@@H](CCCNC(=N)N)C(=O)N[C@@H](CCCCN)C(=O)N[C@@H](CC(N)=O)C(=O)N[C@@H](Cc1ccccc1)C(=O)N[C@H](C(=O)N1CCC[C@H]1C(=O)N[C@H](C(=O)N[C@@H](CC(=O)O)C(=O)N[C@H](C(=O)NCC(=O)N1CCC[C@H]1C(=O)N[C@@H](Cc1ccccc1)C(=O)N[C@@H](C)C(=O)N[C@@H](Cc1ccccc1)C(N)=O)C(C)C)[C@@H](C)O)C(C)C)C(C)C)C(C)C
B4: SEQ ID NO 900 (peptide)
peptide: Ac-[1Nal]VEH[hArg]LKGLLS[Cit]SGGVVRKNFVPTDVGPFAF-NH2
modifications: lactam 3-7
SMILES: CC(=O)N[C@@H](Cc1cccc2ccccc12)C(=O)N[C@H](C(=O)N[C@H]1CCC(=O)NCCCC[C@@H](C(=O)NCC(=O)N[C@@H](CC(C)C)C(=O)N[C@@H](CC(C)C)C(=O)N[C@@H](CO)C(=O)N[C@@H](CCCNC(N)=O)C(=O)N[C@@H](CO)C(=O)NCC(=O)NCC(=O)N[C@H](C(=O)N[C@H](C(=O)N[C@@H](CCCNC(=N)N)C(=O)N[C@@H](CCCCN)C(=O)N[C@@H](CC(N)=O)C(=O)N[C@@H](Cc2ccccc2)C(=O)N[C@H](C(=O)N2CCC[C@H]2C(=O)N[C@H](C(=O)N[C@@H](CC(=O)O)C(=O)N[C@H](C(=O)NCC(=O)N2CCC[C@H]2C(=O)N[C@@H](Cc2ccccc2)C(=O)N[C@@H](C)C(=O)N[C@@H](Cc2ccccc2)C(N)=O)C(C)C)[C@@H](C)O)C(C)C)C(C)C)C(C)C)NC(=O)[C@H](CC(C)C)NC(=O)[C@H](CCCCNC(=N)N)NC(=O)[C@H](Cc2c[nH]cn2)NC1=O)C(C)C
B5: SEQ ID NO 909 (peptide)
peptide: Ac-WVEH[hArg]LKGLLS[Cit]SG[Aze]VV[hArg]KNFVPTDVGPFAF-NH2
modifications: lactam 3-7
SMILES: CC(=O)N[C@@H](Cc1c[nH]c2ccccc12)C(=O)N[C@H](C(=O)N[C@H]1CCC(=O)NCCCC[C@@H](C(=O)NCC(=O)N[C@@H](CC(C)C)C(=O)N[C@@H](CC(C)C)C(=O)N[C@@H](CO)C(=O)N[C@@H](CCCNC(N)=O)C(=O)N[C@@H](CO)C(=O)NCC(=O)N2CC[C@H]2C(=O)N[C@H](C(=O)N[C@H](C(=O)N[C@@H](CCCCNC(=N)N)C(=O)N[C@@H](CCCCN)C(=O)N[C@@H](CC(N)=O)C(=O)N[C@@H](Cc2ccccc2)C(=O)N[C@H](C(=O)N2CCC[C@H]2C(=O)N[C@H](C(=O)N[C@@H](CC(=O)O)C(=O)N[C@H](C(=O)NCC(=O)N2CCC[C@H]2C(=O)N[C@@H](Cc2ccccc2)C(=O)N[C@@H](C)C(=O)N[C@@H](Cc2ccccc2)C(N)=O)C(C)C)[C@@H](C)O)C(C)C)C(C)C)C(C)C)NC(=O)[C@H](CC(C)C)NC(=O)[C@H](CCCCNC(=N)N)NC(=O)[C@H](Cc2c[nH]cn2)NC1=O)C(C)C
B6: SEQ ID NO 910 (peptide)
peptide: Ac-[1Nal]VEH[hArg]LKGLLS[Cit]SG[Aze]VV[hArg]KNFVPTDVGPFAF-NH2
SMILES: CC(=O)N[C@@H](Cc1cccc2ccccc12)C(=O)N[C@H](C(=O)N[C@@H](CCC(=O)O)C(=O)N[C@@H](Cc1c[nH]cn1)C(=O)N[C@@H](CCCCNC(=N)N)C(=O)N[C@@H](CC(C)C)C(=O)N[C@@H](CCCCN)C(=O)NCC(=O)N[C@@H](CC(C)C)C(=O)N[C@@H](CC(C)C)C(=O)N[C@@H](CO)C(=O)N[C@@H](CCCNC(N)=O)C(=O)N[C@@H](CO)C(=O)NCC(=O)N1CC[C@H]1C(=O)N[C@H](C(=O)N[C@H](C(=O)N[C@@H](CCCCNC(=N)N)C(=O)N[C@@H](CCCCN)C(=O)N[C@@H](CC(N)=O)C(=O)N[C@@H](Cc1ccccc1)C(=O)N[C@H](C(=O)N1CCC[C@H]1C(=O)N[C@H](C(=O)N[C@@H](CC(=O)O)C(=O)N[C@H](C(=O)NCC(=O)N1CCC[C@H]1C(=O)N[C@@H](Cc1ccccc1)C(=O)N[C@@H](C)C(=O)N[C@@H](Cc1ccccc1)C(N)=O)C(C)C)[C@@H](C)O)C(C)C)C(C)C)C(C)C)C(C)C

Biological target: CGRP1 receptor (CRLR/RAMP1 complex) of human neuroblastoma SK-N-MC cells (human, UniProt Q16602 23-461; O60894 27-148)
Sequence (Q16602 23-461, chain 1 of 2): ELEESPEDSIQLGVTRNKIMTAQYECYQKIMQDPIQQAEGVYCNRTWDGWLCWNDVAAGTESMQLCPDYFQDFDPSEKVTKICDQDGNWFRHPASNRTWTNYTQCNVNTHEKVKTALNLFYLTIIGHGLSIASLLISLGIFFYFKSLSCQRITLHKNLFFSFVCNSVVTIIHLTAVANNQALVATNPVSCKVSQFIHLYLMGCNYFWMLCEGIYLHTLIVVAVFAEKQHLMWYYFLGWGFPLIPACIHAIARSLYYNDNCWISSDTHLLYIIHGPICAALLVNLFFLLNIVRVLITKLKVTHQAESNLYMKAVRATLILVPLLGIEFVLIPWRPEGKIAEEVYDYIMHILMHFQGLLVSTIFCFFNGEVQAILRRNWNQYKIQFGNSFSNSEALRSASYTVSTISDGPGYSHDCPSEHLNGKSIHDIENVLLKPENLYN
Sequence (O60894 27-148, chain 2 of 2): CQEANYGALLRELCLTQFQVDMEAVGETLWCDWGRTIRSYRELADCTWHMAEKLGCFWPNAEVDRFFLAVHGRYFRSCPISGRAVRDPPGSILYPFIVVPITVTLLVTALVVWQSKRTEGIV
Assay: cell-based or functional assay

Point of comparison: Ac-WVEHRLKGLLS[Cit]SGGVV[hArg]KNFVPTDVGPFAF-NH2 (lactam 3-7; also: PEG-conjugated, in most cases at Lys25) [PEG-peptide of SEQ ID NO 906], “PEG-peptide IC50” value 2.29 nM. Against it:
- Ac-WVEHRLKGLLS[hArg]SGGVV[hArg]KNFVPTDVGPFAF-NH2 (lactam 3-7; also: PEG-conjugated, in most cases at Lys25) [PEG-peptide of SEQ ID NO 905] — 1.6-fold higher, 3.7 nM
- Ac-WVEH[Cit]LKGLLS[Cit]SGGVV[hArg]KNFVPTDVGPFAF-NH2 (lactam 3-7; also: PEG-conjugated, in most cases at Lys25) [PEG-peptide of SEQ ID NO 907] — 2.1-fold higher, 4.87 nM
- Ac-WVEHRLKGLLSQSGGVV[hArg]KNFVPTDVGPFAF-NH2 (lactam 3-7; also: PEG-conjugated, in most cases at Lys25) [PEG-peptide of SEQ ID NO 904] — 2.9-fold higher, 6.73 nM
- Ac-[Aib]WVEH[hArg]LKGLLS[Cit]SGGVVRKNFVPTDVGPFAF-NH2 (lactam 4-8; also: PEG-conjugated, in most cases at Lys25) [PEG-peptide of SEQ ID NO 898] — 18-fold higher, 40.7 nM

Point of comparison: WVTHRLAGLLSRSGGVVRKNFVPTDVGPFAX (Ac-WVTHRLAGLLSRSGGVVRKNFVPTDVGPFA[1-Nal]-NH2) [SEQ ID NO 914], “Peptide IC50” value 33.1 nM. Against it:
- Ac-WVEH[hArg]LKGLLS[Cit]SG[Aze]VVRKNFVPTDVGPFAF-NH2 (lactam 3-7) [SEQ ID NO 899] — 20-fold lower, 1.62 nM
- B1 — 9.5-fold lower, 3.5 nM
- B2 — 26-fold lower, 1.28 nM
- B3 — 18-fold lower, 1.8 nM
- Ac-WVEHRLKGLLS[Cit]SGGVV[hArg]KNFVPTDVGPFAF-NH2 (lactam 3-7) [SEQ ID NO 906] — 29-fold lower, 1.15 nM
- Ac-WVTHRLAGLLSRSGGVVRKNFVPTDVGPKAF-NH2 [SEQ ID NO 917] — 33-fold lower, 1 nM
- Ac-WVEHRLKGLLSQSGGVV[hArg]KNFVPTDVGPFAF-NH2 (lactam 3-7) [SEQ ID NO 904] — 16-fold lower, 2.03 nM
- Ac-WVTHRLAGLLSRSGGVVRKNFVPTDVGSKAF-NH2 [SEQ ID NO 915] — 29-fold lower, 1.15 nM
- Ac-WVEHRLKGLLS[hArg]SGGVV[hArg]KNFVPTDVGPFAF-NH2 (lactam 3-7) [SEQ ID NO 905] — 19-fold lower, 1.7 nM
- WVTHRLAGLLSRSGGVVRKNXVPTDVGPFAF (Ac-WVTHRLAGLLSRSGGVVRKN[2-Nal]VPTDVGPFAF-NH2) [SEQ ID NO 912] — 29-fold lower, 1.16 nM
- WVTHRLAGLLSRSGGVVRKNFVPTDVGPFAX (Ac-WVTHRLAGLLSRSGGVVRKNFVPTDVGPFA[2-Nal]-NH2) [SEQ ID NO 913] — 19-fold lower, 1.72 nM
- B4 — 14-fold lower, 2.43 nM
- B5 — 9.6-fold lower, 3.45 nM
- WVEHRLKGELSRKGGVVXKNFVPTDVGPFAF (Ac-WVEHRLKGELSRKGGVV[hArg]KNFVPTDVGPFAF-NH2) [SEQ ID NO 901] — 32-fold lower, 1.02 nM
- WVEHRLKGELSXKGGVVXKNFVPTDVGPFAF (Ac-WVEHRLKGELS[Cit]KGGVV[hArg]KNFVPTDVGPFAF-NH2) [SEQ ID NO 902] — 68-fold lower, 0.49 nM
- B6 — 14-fold lower, 2.31 nM
